Values quoted from earlier work in paper PMC8569200.

Target: CD137 (Homo sapiens) (UniProt Q07011)
Test: SPR

Chain of CD137 (Homo sapiens) (Q07011 24-255): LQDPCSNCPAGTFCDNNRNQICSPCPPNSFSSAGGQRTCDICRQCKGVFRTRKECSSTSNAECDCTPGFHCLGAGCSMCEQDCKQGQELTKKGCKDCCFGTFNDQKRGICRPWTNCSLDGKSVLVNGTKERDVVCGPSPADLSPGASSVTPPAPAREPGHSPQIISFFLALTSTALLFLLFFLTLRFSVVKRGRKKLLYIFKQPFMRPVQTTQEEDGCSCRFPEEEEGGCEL
Chain of CD137L (P41273 whole entry): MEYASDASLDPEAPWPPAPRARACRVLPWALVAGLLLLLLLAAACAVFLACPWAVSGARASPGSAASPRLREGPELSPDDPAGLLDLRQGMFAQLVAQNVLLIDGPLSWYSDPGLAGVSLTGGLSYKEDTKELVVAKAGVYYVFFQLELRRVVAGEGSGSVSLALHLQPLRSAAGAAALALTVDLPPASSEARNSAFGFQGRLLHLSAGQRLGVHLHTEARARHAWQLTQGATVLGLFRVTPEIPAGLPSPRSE

Kd: 680 nM
Substance: CD137L (from UniProt P41273)
